One molecule from publication PMC6713926, “Structural Basis for Properdin Oligomerization and Convertase Stimulation in the Human Complement System” (Frontiers in Immunology, 2019) can be followed below.

The experiment addresses T1, FPht, monomeric FP head-tail protein from co-expression of FPh and FPt (human).
T1 construct: properdin (FP), human, TB-TSR3 head fragment (FPh), expressed with the endogenous FP signal peptide; the head fragment of FPc is residues 28-255; properdin (FP), human, TSR4-6 tail fragment (FPt); the tail fragment of FPc is residues 256-469; also called FPht WT; WT FPht
T1 chain 1: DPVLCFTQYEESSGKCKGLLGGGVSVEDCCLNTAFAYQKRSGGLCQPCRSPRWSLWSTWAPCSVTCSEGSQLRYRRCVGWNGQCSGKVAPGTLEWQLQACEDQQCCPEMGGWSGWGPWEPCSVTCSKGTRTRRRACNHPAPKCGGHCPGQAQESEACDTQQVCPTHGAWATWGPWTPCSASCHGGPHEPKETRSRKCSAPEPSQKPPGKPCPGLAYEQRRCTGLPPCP
T1 chain 2: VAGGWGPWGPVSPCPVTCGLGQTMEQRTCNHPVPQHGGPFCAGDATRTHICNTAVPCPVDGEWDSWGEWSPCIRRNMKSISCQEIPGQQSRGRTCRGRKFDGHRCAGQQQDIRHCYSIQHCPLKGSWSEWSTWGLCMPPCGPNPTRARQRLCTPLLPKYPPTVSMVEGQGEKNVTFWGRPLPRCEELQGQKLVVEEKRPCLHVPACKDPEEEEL
Kind of experiment: BLI; hFPNb1 amine-coupled on AR2G sensors, FPht (20 μg/mL) loaded on it; C3b, FB variants or C3b + FB at 50 μg/mL each; 30°C; 20 mM MES pH 6.0, 100 mM NaCl, 0.05% Tween, 1 mg/mL BSA, 5 mM MgCl2; FB signal subtracted. Particulars: both partners purified.

B1: hFPNb1, FP specific non-inhibitory nanobody (VHH)
VHH: QVQLVESGGGLVQAGGSLRLSCAASERTFTIYAMGWFRQAPGKEREFVAAISRSGENTDYADSVKGRFTISRDNNKNTISLQMNSLKPEDTAVYYCAAGRAILVHTTKKEYDHWGQGTQVTVSS
notes: llama nanobody selected by phage display against FPc
Consider B1, for which the binding result was “binds”.
